Molecular target: PDZ1/2 domain
Assay: SPR, Biacore 3000; PDZ1/2 amine-coupled to the chip, peptide as analyte, 1:1 binding model

PDZ1/2 domain, sequence (P78352 65-246): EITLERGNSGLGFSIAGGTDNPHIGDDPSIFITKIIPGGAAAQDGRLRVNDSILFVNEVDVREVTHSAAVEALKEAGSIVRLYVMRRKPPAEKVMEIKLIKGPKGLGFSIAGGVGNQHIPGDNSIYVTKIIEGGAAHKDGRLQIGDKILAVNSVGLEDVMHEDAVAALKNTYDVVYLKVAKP

YGRKKRRQRRRKLSSIESDV (modifications not checked) [control chimeric peptide NA-1]
Kd: 75.3 nM

Source: patent publication US20190134143A1
